From a protein production outcome set (Wang et al. 2014)

Assay: label from the status in PepcDB records

Sequence	protein production
MSQQSSSPTKEDNNSSSPVVPNPDSVPPQLSSPALFYSSSSSQGDIYGRNNSQNLSQGEGNIRAAIGSSPLNFPSSSQRQNSDVFQSQGRQGRIRSSASASGRSRYHSDLRSDRALPTSSSSLGRNGQNRVHMRRNDIHTSDLSSPRRIVDFDTRSGVNTLDTSSSSAPPSEASEPLRIIWGTNVSIQECTTNFRNFLMSFKYKFRKILDEREEFINNTTDEELYYIKQLNEMRELGTSNLNLDARNLLAYKQTEDLYHQLLNYPQEVISIMDQTIKDCMVSLIVDNNLDYDLDEIETKFYKVRPYNVGSCKGMRELNPNDIDKLINLKGLVLRSTPVIPDMKVAFFKCNVCDHTMAVEIDRGVIQEPARCERIDCNEPNSMSLIHNRCSFADKQVIKLQETPDFVPDGQTPHSISLCVYDELVDSCRAGDRIEVTGTFRSIPIRANSRQRVLKSLYKTYVDVVHVKKVSDKRLDVDTSTIEQELMQNKVDHNEVEEVRQITDQDLAKIREVAAREDLYSLLARSIAPSIYELEDVKKGILLQLFGGTNKTFTKGGRYRGDINILLCGDPSTSKSQILQYVHKITPRGVYTSGKGSSAVGLTAYITRDVDTKQLVLESGALVLSDGGVCCIDEFDKMSDSTRSVLHEVMEQQTISIAKAGIITTLNARSSILASANPIGSRYNPNLPVTENIDLPPPLLSRFDLVYLVLDKVDEKNDRELAKHLTNLYLEDKPEHISQDDVLPVEFLTMYISYAKEHIHPIITEAAKTELVRAYVGMRKMGDDSRSDEKRITATTRQLESMIRLAEAHAKMKLKNVVELEDVQEAVRLIRSAIKDYATDPKTGKIDMNLVQTGKSVIQRKLQEDLSREIMNVLKDQASDSMSFNELIKQINEHSQDRVESSDIQEALSRLQQEDKVIVLGEGVRRSVRLNNRV	failed
MSQSKEDKIRSILEAKNIKSNFQNKENLSEFNEKKASKRAEDLLDVYYNTLSTADMEFPYWYNREYRKSDGDIPVVRRAKALKAAFSHMTPNIIPGEKIVMQKTRHYRGSFPMPWVSESFFVAQGEQMREEAKKLASNTADELTKFGSGGGNVTESFGNVVSIAGKFGMRKEEVPVLVKMAKEWVGKSVEDLGFHYEKMMPDYDLKENLMSTLICMFDSGYTLPQGREVINYFYPLNYGLDGIIEMAKECKKAVAGNASGDGLIGMDRLYFYEAVIQVIEGLQTWILNYAKHAKYLESIETDLEAKKEYSDLVEILEHIAHKQPRTFREALQLTYTIHIASVNEDAISGMSIGRFGQILYPWYEQDIEKGLITKEEVIELLELYRIKITCIDCFASAGVNGGVLSGNTFNTLSIGGLKEDGSTGANELEELLLEASMRCRTPQPSLTMLYDEKLPEDFLMKAAECTKLGSGYPAWVNNSNGTTFMMKQFADEGMTVEEARAFALGGCLETSPGCWKQLTLNGKTYSIAGGAGQSAGSGVHFIANPKILELVLMNGKDYRMNIQVFEPHNKPLDTYEEVIEVFKDYYKQAINVLERANNIELDIWRKFDTSIINSLLKPDCLDKGQHIGNMGYRYNATLNVETCGTVTMVNSFAALKKLVYDDKAFTIEEMKDAILNNFGFKDALEVGNYSMADQVKVDKTGKYDAIYKACLDAPKYGNNDLYADNILKNYEVWLSKVCEEAQSLYAKKMYPCQISVSTHGPQGAATLATPDGRLSGTTYSDGSVSAYAGTDKNGVYALFESATIWDQAVVQNSQMNLKLHPTTIKGQQGTKKLLDLTRSYLRKGGFHIQYNVVDSETLKDAQKNPDNYRQLMVRVAGFTQYWCELGKPIQDEVIARTEYEGV	failed
MSQSMYSYPAMTANVGDMAGYTGTTQSLGADIASERTAPSRACQGDLGMSHQDWQAQWNQAMEALARAYRRCRRALRQIGVLERPVGDSSDCGTIRVGSFRGRWLDPRHAGPATAADAGD	failed
MSQSNHPGGKDAGSIPRVLISADRSSSGKTTISMGLMAALVSRGYKVQPFKVALDYIDPSYHTEITGRFCRNLDGYLMDEHGILDVYTHACETGGGADIAIIEGVRGLFEGFESLSDVGSTAQIAKILKCPVVFVINARSITRSAAALIGGYKNFDPDVEIAGVILNNIGGRRHAQKAKEAIEHYTGVPVLGIIPRDPSMQISMRHLGLMPALEGRRRFGDGGFENRLHGIEEIINKGIDVDRFLGIAESAKPLTALENSIFSPAVNENSQKPKIGVALDEAFNFYYRDNIDLLEIAGAEIVYFSPVNDPGLPEVDGLYIGGGYPELFAAELEANETMRKSIKEASAAGMPIYAECGGLMYLTEKISTGVPGKGTYHDASMPESTYSMVGALPGHTIMGQTRVVSYNIGTLARDCPIGKKGNSFKGHEFHHSEILEIPDDAEFAIALTRGTGIRGDRDGLIVNNTIGSYAHLHGVAYRELAGSLVEAARKFRDSRVSSLEHHHHHH	not failed
MSQSPSPPDSPSASPDSPSASPMHAFLLCAGFGTRMRPVTAETPKSLVTVAGRPLLDHLLDELTAWSALTEIHVAVNHEDAPAFREWAAGHRADLETQGIGLHLHDDGVEAPDDQLGCVGDLRFLLDAVGLPADGALVSGGDSLYRFPLAPLLNAYDGTTNRVLALHEPDPERRAQSSVLQLDGPTVTAVHDDPTGTASTRICPSWLLLSAEGLGAIVPYLDDGGPPDTLGAFLDRLARTHSVQAHRLPQTGHLRLHCNTPDDLEHARKLLRKGPRHVLGPAPVRASLPEPAS	failed
MSQSSSPQQIPVVVLAGFLGSGKTTLLNHLLHRSGGSRIGAIVNDFGAIEIDAMAVAGALGDSTVSLGNGCLCCAVDAGELDLYLERLAHPSARVDVIVIEASGLAEPQELVRMVLASENARVVYGGLVEVVDAAEFDATRAKHPEVDRHLAMADLVVVNKIDRADDGERVLRAVRSLTDRAAVVPATYGRVDPELLFDCRPTGERIGQLSFDDLHEHRGEEDHHGHLHAAYDSVSFTSEAPMNPRRMMDFLDSRPEGLYRIKGYVDFGTADPRNRYAVHAVGRFLRFYPEPWAPAGPRLTQLVLIGSGIDTAALHKELDACTNDAPHADEHSMWGVLRYVQEQEQEQEQRQETAEAEQAG	failed
MSQVHRILNCRGTRIHAVADSPPDQQGPLVVLLHGFPESWYSWRHQIPALAGAGYRVVAIDQRGYGRSSKYRVQKAYRIKELVGDVVGVLDSYGAEQAFVVGHDWGAPVAWTFAWLHPDRCAGVVGISVPFAGRGVIGLPGSPFGERRPSDYHLELAGPGRVWYQDYFAVQDGIITEIEEDLRGWLLGLTYTVSGEGMMAATKAAVDAGVDLESMDPIDVIRAGPLCMAEGARLKDAFVYPETMPAWFTEADLDFYTGEFERSGFGGPLSFYHNIDNDWHDLADQQGKPLTPPALFIGGQYDVGTIWGAQAIERAHEVMPNYRGTHMIADVGHWIQQEAPEETNRLLLDFLGGLRP	not failed
MSQVRQVGLLAAGCQPWNKDVCAANGDRFAYCATLAIYIYQLDHRYNEFRLHAIMAEHKKTITAISWCPHNPDLFASGSTDNLVIIWNVAEQNVIAKLDNIKETPACLSWCWNTGDAVAFVSQKGPLLIWTISGPDSGVSVHKEAHGFVSDICIFRWHTQKKGKVAFGHTDGSISIFQPDEDDPVTALEWDPLSTDYLLVANLHYGIRLLDSESLYCITTFSFPSAAVSVQCLAWVPSAPGMFITGDSQVGVLRIWNVSRTTPIDSFKLKKAGFHCLHVVNSPPKRKFSVQSSNKNHYMSSTSEAVPPPSLTRNQAFSLPPGHVVCCFLDGGVGLYDMGAKKWDFLRELGHVETIFDCKFKPDDPNLLATASFDGTIKVWDINTLTAVYTSPGNEGVIFALSWAPGDLNCIAGATSRNGAFIWDIQKGKMIQRFNEHGKNGIFYIAWSHKDSKRIATCSGDGFCIIRTLDGKLLHKYKHPAAVFGCDWSQNNKDMIATGCEDKHVRVFYVASSSNQPLKVFSGHTARVFHVKWSPLREGVLCSGSDDGSVRIWDYTQDACISILNGHTAPVRGLMWNTEIPYLLISGSWDYTIKVWDTRGGVCLDTVYDHGADVYGLTCHPSRPFTMASCSRDSTVRLWSLIPLITPLQINILADRPWEEIIGNTDNAIEQASPPLLCGKASKDIKQEVEKLTCNPRVKKLRLFSECLSSPGGSDNLWNLVAVIKGQDDSLLPQNYYKGMMHLKHLIKFRTSEAQELTTIKMSKFGGGIGAPTKENKLKEAAEIHLRLGQIQRYCELMVELGEVA	failed
MSRAALGIRSSWVGFVAAATTAMASTIAPVAYAQVAHHVPNDGCSAVEVAVVGGTTQANIHDDPHDVYSFGKGTNFAVNMTRRFHNVTAWQLPYYSSAGITASNNDAEQKEFPPYAVSKNRGVDVLDAHLSDQAVKCPDTQFVIAGFSQGADIAGDMAERISRGKTNPALTPERVLGVYLLADPGRSDLPMNPTQGQTTTGKSGPLTDNGAVLIETNLGLPGAGSVGIAGPRAAGAFSNLPGKVRSICSSGDPACAVHPKGLLASVGKWANDQNDFEHVPVESVRTMMLNGSFFISLAPHMNKIRGDLYASDPVALKQHFDDASMHPRLTQPERNTLHLVGAEIAGLMGHLKQGRDQVAVGSSDTGLSSGGPRDRLIALEKIVQQQTGLVELQLAVGLMIVHLSYTGDSREVSTVGAQRADDWIDSDMTQLISGYLNTLSVRAPYVTLGERHTFIQKMGWPIWWIVSSIWGQRNHAARGVWEFFGL	failed
MSRDGGDVIETAVKSLGKGFDLTADFRLKYCKDGDGSAGDDRLVVLDQTQNRELHIPGFGVFQNVSADINCDKGERTRFRSDILDFNKMSEYFNQRSSVTGKIPSGNFNATFGFQSGSWATDAANVKSLGLDASVVTLFNLHIHNPNRLRLTDRVRNAVPSSWDPQLLARFIERYGTHVITGVSVGGQDVVVVRQDKSSDLDNDLLRHHLYDLGDQLFTGSCLLSTRRLNKAYHHSHSQPKFPEAFNVFDDKQTVAFNNFSINSQNGITVICAKRGGDGRAKSHSEWLITVPDKPDAINFNFIPITSLLKDVPGSGLLSHAMSLYLRYKPPLMDLQYFLDFSGPRAWAPVHNDLPFGAAPNMASAYPALHINFMGPKLYVNTTPVTSEKNPVTGMRFFLEGKKCNRLAIHLQHLDNTRTTVGEKITDEHIWRGSDQITDNDRYFEPLNGKKFSHVCTVPVKYDPNWIKTTSNHKSQNDVAFIVTGAQLEVKKHGSKSVLHLRLRYTKVSDHYVVQNSWVHGPIGTSQKSGIFSSMSMPLTSGSVHHNMIQKDKNEVVLDSGVFPGGPPVPANNKIVKFVDLSQLCRGPQHSPGHWLVTGVRLYLDKGKLCLHVKFALLHRQRLLVSS	failed
MSRFMARIMVNGLNEPGTLAKVAQTVAGLDVNIRLLNTVRVAADFTEMMLEVEVWDLRQLNQLLAQMKELDCIATVRRLYELEHHHHHH	not failed
MSRGDKMLKFEIKARDGAGRIGKLEVNGKKIETPAIMPVVNPKQMVVEPKELEKMGFEIIITNSYIIYKDEELRRKALELGIHRMLDYNGIIEVDSGSFQLMKYGSIEVSNREIIEFQHRIGVDIGTFLDIPTPPDAPREQAVKELEITLSRAREAEEIKEIPMNATIQGSTYTDLRRYAARRLSSMNFEIHPIGGVVPLLESYRFRDVVDIVISSKMALRPDRPVHLFGAGHPIVFALAVAMGVDLFDSASYALYAKDDRYMTPEGTKRLDELDYFPCSCPVCSKYTPQELREMPKEERTRLLALHNLWVIKEEIKRVKQAIKEGELWRLVDERARSHPKLYSAYKRLLEHYTFLEEFEPITKKSALFKISNESLRWPVVRRAKERAKSINERFGELVEHPIFGRVSRYLSLTYPFAQSEAEDDFKIEKPTKEDAIKYVMAIAEYQFGEGASRAFDDAKVELSKTGMPRQVKVNGKRLATVRADDGLLTLGIEGAKRLHRVLPYPRMRVVVNKEAEPFARKGKDVFAKFVIFADPGIRPYDEVLVVNENDELLATGQALLSGREMIVFQYGRAVKVRKGVE	not failed
MSRGHCILAHGFESGPDALKVTALAEVAERLGWTHERPDFTDLDARRDLGQLGDVRGRLQRLLEIARAATEKGPVVLAGSSLGSYIAAQVSLQVPTRALFLMVPPTKMGPLPALDAAAVPISIVHAWHDELIPAADVIAWAQARSARLLLVDDGHRLGAHVQAASRAFAELLQSL	not failed
MSRIASHTQGLFADLREWIDLRVDLAILEMEERLDAFKNDLALGLTVAVFAFFAAFFSLTTVALGVGWLLGHPFWGFLAVSVALILIIVTLRVTKPALMPPSNLFESLRGERAASDEGPSSRPASAAVDEADGAEAQASAPDVKA	failed
